Patent US20090011988A1 (Genentech, published 2009)
No end group written: not given here.

T1: human IGFBP-1 (human, UniProt P08833 26-259)
T1 sequence (looked up): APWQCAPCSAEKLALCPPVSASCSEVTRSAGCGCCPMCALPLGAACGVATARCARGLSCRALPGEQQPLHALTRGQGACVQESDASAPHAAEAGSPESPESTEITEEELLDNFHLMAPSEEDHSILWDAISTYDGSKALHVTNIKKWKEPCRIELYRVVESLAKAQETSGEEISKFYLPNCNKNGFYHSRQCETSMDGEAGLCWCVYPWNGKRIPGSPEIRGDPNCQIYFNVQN


How the values were obtained:
[1] = molecular target: T2, recombinant human IGFBP-3 (human, UniProt P17936 28-291); experiment: competitive phage ELISA
T2 sequence (P17936 28-291 limits assumed): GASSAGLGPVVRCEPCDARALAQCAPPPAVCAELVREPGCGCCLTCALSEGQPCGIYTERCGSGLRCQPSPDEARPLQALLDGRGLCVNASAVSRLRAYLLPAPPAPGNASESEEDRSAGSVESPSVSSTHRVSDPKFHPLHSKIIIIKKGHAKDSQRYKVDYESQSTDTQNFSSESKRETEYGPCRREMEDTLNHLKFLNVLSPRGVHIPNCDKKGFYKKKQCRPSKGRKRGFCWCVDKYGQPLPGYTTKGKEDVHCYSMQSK
Description: (§1) E. coli cells (XL1-Blue, Stratagene) freshly transformed with phagemid vector were grown overnight in 5 mL 2YT medium (Sambrook et al., supra) in the presence of M13-VCS helper phage (Stratagene). Phage particles were harvested and resuspended in PBS buffer as described in Lowman, H. B., “Phage Display of Peptide Libraries on Protein Scaffolds,” in Cabilly, S. (ed.), Combinatorial Peptide Library Protocols (Humana Press Inc.: Totowa, N.J., 1998), pp. 249-264. Then phage concentrations were normalized to yield a maximal ELISA signal of 0.2-0.4 for each mutant (Lowman, in Cabilly, S. (ed.), supra). Threefold serial dilutions of soluble competitor were prepared on non-absorbent microtiter plates (Nunc, F, 96 wells) with binding buffer (0.5% TWEEN 20%/PBS) containing phage at the previously determined concentrations. […] After blocking, the plates containing immobilized target were washed with 0.05% TWEEN™/PBS buffer and subsequently incubated with 80 μl/well of the premixed phage-competitor solutions for 1 hour at room temperature. […] IC₅₀ values were determined by fitting the binding data to a generic saturation curve (Lowman, in Cabilly, S. (ed.), supra). At least two individual clones of each IGF-1 mutant were assayed. Numbers in Table XIII represent mean±standard deviation of individually assessed IC₅₀ values.

[2] = molecular target: T1, human IGFBP-1; experiment: competitive phage ELISA
Description: as §1

[3] = molecular target: T2, recombinant human IGFBP-3; experiment: phage ELISA (IGF-blocking phage assay): g8 peptide-phage on an IGFBP-3-coated plate, without and with IGF-1; OD492
Description: The plates were then washed ten times, as above, and a solution of rabbit anti-phage antibody mixed with a goat-anti-rabbit conjugate of horseradish peroxidase was added. After an incubation of 1 hour at room temperature, the plates were developed with a chromogenic substrate, o-phenylenediamine (Sigma). The reaction was stopped with addition of ½ volume of 2.5 M H₂SO₄. Optical density at 490 nm was measured on a spectrophotometric plate reader.
In each case, the phagemid clone was grown from a single colony overnight at 37° C. in a culture volume of 5 ml. The phage particles were prepared as described above.

| Molecule | IC50 [1] | relative IC50 (mut/G1S-A70V) [1] | IC50 [2] | relative IC50 (mut/G1S-A70V) [2] | binding result [3] |
| --- | --- | --- | --- | --- | --- |
| IGF-1 Y24A displayed on phage (from UniProt P69168 267-424) (ligand) | 2.53 nM | 3.4 | – | – | – |
| IGF-1 L14A displayed on phage (from UniProt P69168 267-424) (ligand) | – | – | 36.7 nM | 4.5 | – |
| IGF-1 Q15A displayed on phage (from UniProt P69168 267-424) (ligand) | – | 1.7 | – | – | – |
| IGF-1 G22A displayed on phage (from UniProt P69168 267-424) (ligand) | 2.07 nM | 2.8 | – | – | – |
| IGF-1 F23A displayed on phage (from UniProt P69168 267-424) (ligand) | 2.18 nM | 2.9 | – | – | – |
| IGF-1 V17A displayed on phage (from UniProt P69168 267-424) (ligand) | 3.67 nM | 4.9 | 42.9 nM | 5.2 | – |
| IGF-1 P28A displayed on phage (from UniProt P69168 267-424) (ligand) | 1.41 nM | 1.9 | – | – | – |
| IGF-1 D12A displayed on phage (from UniProt P69168 267-424) (ligand) | – | – | 4.3 nM | 0.5 | – |
| IGF-1 L10A displayed on phage (from UniProt P69168 267-424) (ligand) | 3.55 nM | 4.7 | 311 nM | 37.9 | – |
| IGF-1 D20A displayed on phage (from UniProt P69168 267-424) (ligand) | 1.11 nM | 1.5 | – | – | – |
| IGF-1 F25A displayed on phage (from UniProt P69168 267-424) (ligand) | 3.69 nM | 4.9 | 181 nM | 22.1 | – |
| EPWLCQYYEAAMLYLCWEEG (not fully specified (bridges); cysteine pairing not given here; also: displayed on phage coat protein g8, whole phage particle in the assay; also called peptide-phage clone 23A3.4 (g8 display)) [23A3.4] | – | – | – | – | binds |
| EPWLCQYYEAAMLYLCWEEG (not fully specified (bridges); cysteine pairing not given here; also: displayed on phage coat protein g8, whole phage particle in the assay; also called peptide-phage clone 23A3.1 (g8 display)) [23A3.1] | – | – | – | – | binds |
| Ala(1-3)-IGF-1 displayed on phage (ligand, bacteriophage M13, range 249-406) AAATLCGAELVDALQFVCGDRGFYFNKPTGYGSSSRRAPQTGIVDECCFRSCDLRRLEMYCAPLKPAKSVSGGGSGSGDFDYEKMANANKGAMTENADENALQSDAKGKLDSVATDYGAAIDGFIGDVSGLANGNGATGDFAGSNSQMAQVGDGDNSPLMNNFRQYLPSLPQSVECRPFVFSAGKPYEFSIDCDKINLFRGVFAFLLYVATFMYVFSTFANILRNKES | 1.12 nM | – | 90.4 nM | – | – |
| IGF-1 P2A displayed on phage (ligand, bacteriophage M13, range 249-406; G1S-A70V background) SAETLCGAELVDALQFVCGDRGFYFNKPTGYGSSSRRAPQTGIVDECCFRSCDLRRLEMYCAPLKPAKSVSGGGSGSGDFDYEKMANANKGAMTENADENALQSDAKGKLDSVATDYGAAIDGFIGDVSGLANGNGATGDFAGSNSQMAQVGDGDNSPLMNNFRQYLPSLPQSVECRPFVFSAGKPYEFSIDCDKINLFRGVFAFLLYVATFMYVFSTFANILRNKES | 0.81 nM | – | 11 nM | – | – |
| IGF-1 D45A displayed on phage (ligand, not shown: large carriers; small tags and cut ends, G1S-A70V background) SPETLCGAELVDALQFVCGDRGFYFNKPTGYGSSSRRAPQTGIVAECCFRSCDLRRLEMYCAPLKPAKSV | 0.69 nM | – | 4.7 nM | – | – |

| Molecule | IC50 [1] | relative IC50 (mut/G1S-A70V) [1] | IC50 [2] | relative IC50 (mut/G1S-A70V) [2] | binding result [3] |
| --- | --- | --- | --- | --- | --- |
| IGF-1 I43A displayed on phage (ligand, not shown: large carriers; small tags and cut ends, G1S-A70V background) SPETLCGAELVDALQFVCGDRGFYFNKPTGYGSSSRRAPQTGAVDECCFRSCDLRRLEMYCAPLKPAKSV | 1.17 nM | – | 31.3 nM | – | – |
| IGF-1 R55A displayed on phage (ligand, not shown: large carriers; small tags and cut ends, not fully specified; ends and bridges not checked, G1S-A70V background) SPETLCGAELVDALQFVCGDRGFYFNKPTGYGSSSRRAPQTGIVDECCFRSCDLARLEMYCAPLKPAKSV | 0.66 nM | – | 9 nM | – | – |
| IGF-1 L54A displayed on phage (ligand, not shown: large carriers; small tags and cut ends, ends and bridges not checked; also: displayed on M13 phage, fused to g3p fragment (249-406) via amber-codon residue, G1S-A70V background) SPETLCGAELVDALQFVCGDRGFYFNKPTGYGSSSRRAPQTGIVDECCFRSCDARRLEMYCAPLKPAKSV | 1.83 nM | – | 23.1 nM | – | – |
| IGF-1 R50A displayed on phage (ligand, not shown: large carriers; small tags and cut ends, G1S-A70V background) SPETLCGAELVDALQFVCGDRGFYFNKPTGYGSSSRRAPQTGIVDECCFASCDLRRLEMYCAPLKPAKSV | 0.64 nM | – | 16.2 nM | – | – |
| IGF-1 L57A displayed on phage (ligand, not shown: large carriers; small tags and cut ends, not fully specified; ends and bridges not checked, G1S-A70V background) SPETLCGAELVDALQFVCGDRGFYFNKPTGYGSSSRRAPQTGIVDECCFRSCDLRRAEMYCAPLKPAKSV | 1.78 nM | – | 21.8 nM | – | – |
| IGF-1 T41A displayed on phage (ligand, not shown: large carriers; small tags and cut ends, G1S-A70V background) SPETLCGAELVDALQFVCGDRGFYFNKPTGYGSSSRRAPQAGIVDECCFRSCDLRRLEMYCAPLKPAKSV | 0.43 nM | – | 13.7 nM | – | – |
| IGF-1 E58A displayed on phage (ligand, not shown: large carriers; small tags and cut ends, ends and bridges not checked; also: displayed on M13 phage, fused to g3p fragment (249-406) via amber-codon residue, G1S-A70V background) SPETLCGAELVDALQFVCGDRGFYFNKPTGYGSSSRRAPQTGIVDECCFRSCDLRRLAMYCAPLKPAKSV | 1.03 nM | – | 11.9 nM | – | – |
| IGF-1 D53A displayed on phage (ligand, not shown: large carriers; small tags and cut ends, ends and bridges not checked; also: displayed on M13 phage, fused to g3p fragment (249-406) via amber-codon residue, G1S-A70V background) SPETLCGAELVDALQFVCGDRGFYFNKPTGYGSSSRRAPQTGIVDECCFRSCALRRLEMYCAPLKPAKSV | 1.05 nM | – | 15.3 nM | – | – |
| IGF-1 S51A displayed on phage (ligand, not shown: large carriers; small tags and cut ends, not fully specified; ends and bridges not checked, G1S-A70V background) SPETLCGAELVDALQFVCGDRGFYFNKPTGYGSSSRRAPQTGIVDECCFRACDLRRLEMYCAPLKPAKSV | 0.65 nM | – | 13.4 nM | – | – |
| IGF-1 M59A displayed on phage (ligand, not shown: large carriers; small tags and cut ends, not fully specified; ends and bridges not checked, G1S-A70V background) SPETLCGAELVDALQFVCGDRGFYFNKPTGYGSSSRRAPQTGIVDECCFRSCDLRRLEAYCAPLKPAKSV | 0.74 nM | – | 13.1 nM | – | – |
| IGF-1 F49A displayed on phage (ligand, not shown: large carriers; small tags and cut ends, G1S-A70V background; also called IGF-F49A phage) SPETLCGAELVDALQFVCGDRGFYFNKPTGYGSSSRRAPQTGIVDECCARSCDLRRLEMYCAPLKPAKSV | 2.72 nM | – | – | > 100 | – |
| IGF-1 V44A displayed on phage (ligand, not shown: large carriers; small tags and cut ends, G1S-A70V background) SPETLCGAELVDALQFVCGDRGFYFNKPTGYGSSSRRAPQTGIADECCFRSCDLRRLEMYCAPLKPAKSV | 1.03 nM | – | 18.8 nM | – | – |
| IGF-1 R56A displayed on phage (ligand, not shown: large carriers; small tags and cut ends, not fully specified; ends and bridges not checked, G1S-A70V background) SPETLCGAELVDALQFVCGDRGFYFNKPTGYGSSSRRAPQTGIVDECCFRSCDLRALEMYCAPLKPAKSV | 1 nM | – | 13.1 nM | – | – |
| IGF-1 E46A displayed on phage (ligand, not shown: large carriers; small tags and cut ends, G1S-A70V background) SPETLCGAELVDALQFVCGDRGFYFNKPTGYGSSSRRAPQTGIVDACCFRSCDLRRLEMYCAPLKPAKSV | 0.94 nM | – | 7.9 nM | – | – |
| IGF-1 G42A displayed on phage (ligand, not shown: large carriers; small tags and cut ends, G1S-A70V background) SPETLCGAELVDALQFVCGDRGFYFNKPTGYGSSSRRAPQTAIVDECCFRSCDLRRLEMYCAPLKPAKSV | 0.53 nM | – | 15.7 nM | – | – |
